For series [1], the target named is Congregibacter litoralis KT71 NAD+-specific isocitrate dehydrogenase (recombinant ClIDH) (Congregibacter litoralis KT71). As to the kind of experiment: AUC; sedimentation velocity, Beckman XL-A, 20°C, 116,000 g, continuous c(s) distribution; protein of more than 90% purity after gel filtration; single run. (Size exclusion chromatography separates by hydrodynamic size, large species first.)

For series [2] the target is unchanged. The series is described as follows: SEC; gel filtration on a 10/300 Superdex 200 column, 0.05 M potassium phosphate buffer (pH 7.0), 0.15 M NaCl, 0.01% sodium azide; calibrated with ovalbumin, conalbumin, aldolase, ferritin, thyroglobulin.
Substrate in series [3]: O=C(O)CC(C(=O)O)C(O)C(=O)O
The series is described as follows: purified protein. The conditions noted are these: Mn2+ 2 mM, NAD+ 1 mM, 35 mM Tris-HCl pH 7.5, 25°C. The series is classed as biochemical, Congregibacter litoralis.

Substrate in series [4]: NC(=O)c1ccc[n+]([C@@H]2O[C@H](COP(=O)(O)OP(=O)(O)OC[C@H]3O[C@@H](n4cnc5c(N)ncnc54)[C@H](O)[C@@H]3O)[C@@H](O)[C@H]2O)c1
As to the kind of experiment: purified protein. The series is classed as biochemical, Congregibacter litoralis. The note with it: Mn2+ 2 mM, DL-isocitrate 1.5 mM, 35 mM Tris-HCl pH 7.5, 25°C, varied: cofactor.

Substrate in series [5]: NC(=O)c1ccc[n+]([C@@H]2O[C@H](COP(=O)(O)OP(=O)(O)OC[C@H]3O[C@@H](n4cnc5c(N)ncnc54)[C@H](OP(=O)(O)O)[C@@H]3O)[C@@H](O)[C@H]2O)c1
As to the kind of experiment: purified protein. The series is classed as biochemical, Congregibacter litoralis. The conditions noted are these: Mn2+ 2 mM, DL-isocitrate 1.5 mM, 35 mM Tris-HCl pH 7.5, 25°C, varied: cofactor.

Turning to “Congregibacter litoralis KT71 NAD+-specific isocitrate dehydrogenase (recombinant ClIDH) (enzyme)”, the stoichiometry N in series [1] and in series [2] was 6 throughout.

B1: ClIDH (Congregibacter litoralis KT71) (protein)
chain: MSNKIKVEKPLVILHGDEMAQIAFERLLEQFVTSRLDINLLEVDLSAEKRFTTNGQVVLDAIDALIEHGVGIKNAGMTVNRSQLDELLAKYPDVKESELDKLATKSPNGAIRKGIGGNITREDIEFQNLTSVRPDWIDRDIEVDTMDSGGLDFSYSELSNATGVAKVMFVGSSGDPVELHRRTLKKGDPWMLANNSLEEVEAWAHRFFQRALDEKRDIYLGLKDTVVPGYDGVMRAAIEAIYERDYKEKVAAAGLKYHYELIDAQAARIVSNPPERALWGVPDNVSGMKLYKLVQQLKHYGLPERKANVSISRMSAGGGDQYGSYNTPAPEDGIIKVVVDGVEKHARMVKANDPILFMSNDRDAIKDWVKQVFKDASINKKEVYFGLKREFVNYDEVYSSIILEIRKELAALDTPPPSFMIMRPSRQLSKMICDPPRWGLYPAQNLDGDIFSDISAALGGSLATASSVIKSKDGTLLYEAPHGTAHDLYLRYLETDGKEAHFNSSALIFAVANALEEMARREENEALADYAQRLKAALIDTVAQGTITGDLKGKTLDPESENVVDMYGFLDAIEANLNAS
notes: full length 580 residues, 6xHis tag (pET-28b, upstream, kept), E. coli Rosetta (DE3), about 64 kDa subunit, homohexamer
Regarding B1, the Km in the series “purified protein [3]” was 90.8 µM. Besides, in “purified protein [4]”, the Km is 309.1 ± 11.2 µM, the kcat came out at 84.7 s⁻¹ and the kcat/Km was found to be 270000 M⁻¹ s⁻¹.

B2: ClIDH (Congregibacter litoralis KT71; D487R/L488H) (protein)
chain: MSNKIKVEKPLVILHGDEMAQIAFERLLEQFVTSRLDINLLEVDLSAEKRFTTNGQVVLDAIDALIEHGVGIKNAGMTVNRSQLDELLAKYPDVKESELDKLATKSPNGAIRKGIGGNITREDIEFQNLTSVRPDWIDRDIEVDTMDSGGLDFSYSELSNATGVAKVMFVGSSGDPVELHRRTLKKGDPWMLANNSLEEVEAWAHRFFQRALDEKRDIYLGLKDTVVPGYDGVMRAAIEAIYERDYKEKVAAAGLKYHYELIDAQAARIVSNPPERALWGVPDNVSGMKLYKLVQQLKHYGLPERKANVSISRMSAGGGDQYGSYNTPAPEDGIIKVVVDGVEKHARMVKANDPILFMSNDRDAIKDWVKQVFKDASINKKEVYFGLKREFVNYDEVYSSIILEIRKELAALDTPPPSFMIMRPSRQLSKMICDPPRWGLYPAQNLDGDIFSDISAALGGSLATASSVIKSKDGTLLYEAPHGTAHRHYLRYLETDGKEAHFNSSALIFAVANALEEMARREENEALADYAQRLKAALIDTVAQGTITGDLKGKTLDPESENVVDMYGFLDAIEANLNAS
notes: as for B1
Turning to B2, in the series “purified protein [5]”, the Km was 156.7 ± 4.8 µM, the kcat was found to be 55.1 s⁻¹ and the kcat/Km worked out at 350000 M⁻¹ s⁻¹. Further, in “purified protein [4]”, the Km worked out at 663.8 ± 48.6 µM, the kcat was determined as 9.7 s⁻¹ and the catalytic efficiency (kcat/Km) is 15000 M⁻¹ s⁻¹.

A word on the stoichiometry N: it is the number of molecules, sites or subunits per partner or assembly. For orientation: Km means the substrate concentration at which the rate is half of its maximum. As a reminder, the kcat is the maximal rate divided by the concentration of active sites. By kcat/Km is commonly meant the turnover number divided by the Michaelis constant.

The record behind these values is paper PMC4420465, “A Novel Type II NAD^+-Specific Isocitrate Dehydrogenase from the Marine Bacterium Congregibacter litoralis KT71” (PLoS ONE, 2015).
